Results as given in paper PMC3320604, “A Genome-Wide Screen for Genetic Variants That Modify the Recruitment of REST to Its Target Genes”.

What was measured:
[1] = biological target: T1, HisMBP-REST/DBD (UniProt Q13127 159-412); assay: competition EMSA; 10 mM Tris-HCl pH 8.0, 100 mM KCl, 50 uM ZnCl2 (printed '50 M ZnCl', symbols lost), 2 mM 2-mercaptoethanol, 10% glycerol, 0.1% NP-40, 0.1 mg/ml BSA; 0.5 nM probe, 150 nM competitor, 40 nM protein, 1 h; temperature lost in text; details: protein: recombinant; tags: His-MBP
T1 sequence: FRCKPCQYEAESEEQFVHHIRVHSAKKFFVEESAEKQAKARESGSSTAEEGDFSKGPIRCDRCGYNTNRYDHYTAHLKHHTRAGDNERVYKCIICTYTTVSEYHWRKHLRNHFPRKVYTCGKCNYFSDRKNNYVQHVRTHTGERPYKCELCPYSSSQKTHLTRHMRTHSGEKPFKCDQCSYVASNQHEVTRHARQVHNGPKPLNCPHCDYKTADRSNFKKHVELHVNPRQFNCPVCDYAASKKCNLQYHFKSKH

[2] = biological target: T1, HisMBP-REST/DBD; assay: competition; 10 mM Tris-HCl pH 8.0, 100 mM KCl, 50 uM ZnCl2 (printed '50 M ZnCl', symbols lost), 2 mM 2-mercaptoethanol, 10% glycerol, 0.1% NP-40, 0.1 mg/ml BSA; 0.5 nM probe, 150 nM competitor, 40 nM protein, 1 h; temperature lost in text; details: protein: recombinant; tags: His-MBP

Binder | binding result [1] | binding result [2]
Ideal RE1 (Chrm4) (dsDNA) DNA 1: TCAGCCTCTCTTCAGCACCTCGGACAGCTCCGGACCTCTC DNA 2: GAGAGGTCCGGAGCTGTCCGAGGTGCTGAAGAGAGGCTGA | binds | –
Mutated RE1 (Mut) (dsDNA) DNA 1: TCAGCCTCTCTTCAGCAGGTCCCACAGCTCCGGACCTCTC DNA 2: GAGAGGTCCGGAGCTGTGGGACCTGCTGAAGAGAGGCTGA | – | no binding
